Key:
human TMEM106B [1] = target: T1, human TMEM106B (human, UniProt Q9NUM4 2-274); experiment: FACS A549 10 ug/ml
T1 construct: full-length, transiently expressed on HEK293 cells, or natively expressed on HeLa, U251 and A549 cells (the cell is named under assay); also the source of the Pepscan peptides; also called huTMEM106B; huTMEM
Experimental: (§1) Purified anti-TMEM106B antibodies were evaluated for their binding affinity to various TMEM106B-expressing cell lines including HEK293 transiently transfected with human/cyno/mouse TMEM106B, as well as HeLa cells and A549 cells. Antibodies tested for this experiment were mouse IgGs purified from hybridoma supernatant. Affinity binding to cells was determined as follows. Briefly, 1×10\hat{ }5 cells were aliquoted per well in 96-well round bottom plates and incubated with 50 μL of purified anti-TMEM106B antibody at various concentrations (10× dilutions starting at 10 μg/ml) in FACS buffer (PBS+2% FBS+1 mM EDTA). […] Sorting was performed on a iQue (Intellicyt), with sort gates drawn to exclude dead (propidium iodide+) cells. Binding data was analyzed using median fluorescent intensity (MFI) and graphed in Prism. Values presented are MFI.

human TMEM106B [2] = target: T1, human TMEM106B; experiment: FACS HEK+huTMEM 1.0 ug/ml;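 further: binding of purified mouse IgG antibodies to HEK293 cells transiently expressing human TMEM106B, read by flow cytometry as median fluorescence intensity of live, propidium iodide-negative cells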
Experimental: as §1

human TMEM106B [3] = target: T1, human TMEM106B; experiment: FACS HeLa
human TMEM106B [4] = target: T1, human TMEM106B; experiment: FACS HEK+huTMEM 0.1 ug/ml (2nd column so headed);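 further: flow cytometry binding of purified anti-TMEM106B mouse IgG to HEK293 cells transiently transfected with TMEM106B, read as median fluorescence intensity on live (propidium iodide-negative) cells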
Experimental: as §1

human TMEM106B [5] = target: T1, human TMEM106B; experiment: FACS A549 1 ug/ml
human TMEM106B [6] = target: T1, human TMEM106B; experiment: FACS U251
Experimental: (§2) All cells were cultured in either T75 or T150 flasks. […] The enzyme was quenched by addition of fresh media, and the cells were then distributed into 96-well plates for FACS analysis.
(§3) FACS analysis was performed as follows. Each cell type was aliquoted in 96-well round bottom plates (2×10^5 cells per well), washed once with FACS buffer (PBS+2% FBS+1 mM EDTA), and incubated with 50 μL of hybridoma supernatant or purified antibody (10 μg/ml in FACS buffer) on ice for 1 hour. […] Following this secondary incubation, the cells were again washed 2× with ice-cold FACS buffer and resuspended in a final volume of 50 μL of FACS buffer+0.25 μl/well propidium iodide (Fisher Scientific #4BDB556463). Analysis was performed on a FACSCanto system (BD Biosciences) or iQue (Intellicyt), with sort gates drawn to exclude dead (i.e., propidium iodide positive) cells.

mouse TMEM106B = target: T2, mouse TMEM106B (mouse, UniProt Q80X71 2-275); experiment: FACS Neuro2a;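 further: flow cytometry of antibody binding to cells: hybridoma supernatant or purified antibody at 10 µg/ml, 1 h on ice, secondary detection, propidium iodide–positive dead cells gated out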
T2 construct: transiently expressed on HEK293 cells, or native on mouse Neuro2a cells; also called moTMEM106B; murine TMEM106B
Experimental: as §2, §3

human TMEM106B [7] = target: T1, human TMEM106B; experiment: FACS HEK+huTMEM 10 ug/ml;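 further: flow cytometric binding of purified mouse IgG antibodies to HEK293 cells transiently expressing human TMEM106B, read as median fluorescence intensity on live cells with propidium iodide-positive cells excluded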
Experimental: as §1

human TMEM106B [8] = target: T1, human TMEM106B; experiment: FACS A549;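 further: flow cytometry of cells incubated on ice for 1 h with hybridoma supernatant or purified antibody at 10 µg/mL, dead propidium iodide-positive cells gated out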
Experimental: as §2, §3

human TMEM106B [9] = target: T1, human TMEM106B; experiment: FACS HEK+huTMEM 0.1 ug/ml;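 further: flow cytometry binding of purified mouse IgG antibodies to HEK293 cells transiently expressing TMEM106B, read as median fluorescence intensity on live cells (propidium iodide negative gating)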
Experimental: as §1

| Binder | MFI (human TMEM106B [1]) [MFI] | MFI (human TMEM106B [2]) [MFI] | MFI (human TMEM106B [3]) [MFI] | MFI (human TMEM106B [4]) [MFI] | MFI (human TMEM106B [5]) [MFI] | MFI (human TMEM106B [6]) [MFI] | MFI (mouse TMEM106B) [MFI] | MFI (human TMEM106B [7]) [MFI] | MFI (human TMEM106B [8]) [MFI] | MFI (human TMEM106B [9]) [MFI] |
| --- | --- | --- | --- | --- | --- | --- | --- | --- | --- | --- |
| TM-8 (antibody, V domains shown, mouse IgG (hybridoma)) VH: QIQLVQSGPELKKPGETVKISCKASGYTFTDYPMHWVKQAPGKGFKWMGVIYTDTGEPKYAEVFKGRFAFSLETSASTAYLQINNLKNEDTATYFCVRRLAYWGQGTLVTVSA VL: DIKMTQSPSSMYASLGERVTITCKASQDINSYLSWFQQKPGKSPKTLIFRANRLVDGVPSRFSGSGSGQDYSLTISSLEYEDMGIYYCLQYDEFPLTFGAGTKLEMK | 492 | 317 | 568 | 301 | 393 | 304 | 370 | 465 | 554 | 305 |
| TM-31 (antibody, V domains shown, mouse IgG (hybridoma)) VH: QVQLQQSGAELAKPGASVKVSCKASGYTFISYWMNWVKQRPGQGLEWIGYINPTSGYTRYNQKFKDKATLTADKSSSTAYMQLSSLTYEDSAVYYCARSPPTVVLIGYFDYWGQGTTLTVSS VL: DIKMTQSPSSMYASLGERVTFTCKASQDINSYLSWFQQKPGKSPKTLIYRGNGLVDGVPSRFSGSGSGQDYSLTISSLEYEDMGIYYCLQYDEFPFTFASGTKLEIK | 527 | 3680 | 799 | 596 | 403 | 352 | 325 | 6060 | – | 1390 |
| TM-24 (antibody, V domains shown, mouse IgG (hybridoma)) VH: QVQLKQSGPGQVQPSQSLSITCTVSGFSLSDYGVHWVRQSPGKGLEWLGVIWNNGNTDYNAAFISRLSINKDNSKSQVFFKMTSLQADDTAIYYCVRSLRPLHFDYWGQGTTVTVSS VL: DIVMTQSPSSLTMSVGQKVTMNCKSSQSLLNSNNQQNYLAWYQQKPGQSPKLLVYFASIRESGVPDRFIGSGSGTDFTLTINSVQAEDLADYFCQQHYSTPFTFGSGTKLEIR | 4480 | 64500 | – | 3620 | 2880 | – | – | 66300 | – | 22000 |
| TM-2 (antibody, V domains shown) VH: HIQLVQSGPELKKPGETVKISCKASGYTFTEYPMHWVKQAPGKGFRWMGMIYTNTGEPTYAAEFKGRFAFSLETSASTGYLQINNLKNEDSATYFCVTAGYWGQGTLVTVSA VL: QIVLTQSPAILSASPGEKVTMTCRASSSVSYIHWFLQKPGSSPKPWIYATSNLASGVPFRFIGSGSGTSYSLTISGVEAEDSATYYCQQWSSNPSTFGAGTKLELK | 3360 | 29300 | 2530 | 1440 | 1090 | 1410 | 2900 | 55500 | 1890 | 4730 |
| TM-3 (antibody, V domains shown) VH: QVTLKESGPGIVQPSQTLSLTCSFSGFSLNTLGRGVGWIRQPSGKGLEWLAKIWWNDDKFYYPALKSRLTISKDTSKNQIFLKIANVDTADSATYYCARIAGGTGAAYWGQGTTLTVSS VL: DIVMTQAAFSNPVTLGTSASISCRSSKSLLHSNGITYLYWYLQKPGQSPQLLISQMSSLASGVPDRFSSGGSGTDFTLRISRVEAEDVGVFYCAQNLELPWTFGGGTKLELK | 7670 | 89100 | 2690 | 7700 | 4840 | 1080 | 1980 | 82300 | 1800 | 48700 |
| TM-9 (antibody, V domains shown) VH: EVQLVESGGDLVKPGGSLKLSCVASGFTFSGYGMSWVRQTPDKRLEWVATISSGSFYIYYPDSVKGRLTVSRDNAKNTLYLQMSSLKSEDTAIYYCARQNFYYGCEDYWGQGTTLTVSS VL: DIVMTQAAFSNPVTLGTSASISCRSSKSLLHSNGITYLYWYLQKPGQSPQLLIYQMSNLASGVPNRFSSSGSGTDFTLRISRVEAEDVGVYYCAQNLELPWTFGGGTKLEIK | 7090 | 62100 | 2540 | 3940 | 4880 | 1540 | 2710 | 56400 | 1990 | 28300 |
| TM-1 (antibody, V domains shown) VH: QVQLQQSGAELVRPGTSVKVSCKASGYAFTNYLIEWVKQRPGQGLEWIGVINPGSGGTKYNEKLKGKATLTADKSSSTAYMQLSSLTSVDSAVYFCARRGYTIYDFYAMDYWGQGTSVTVSS VL: DVLMTQTPLSLPVSLGDHASISCRSSQSIVYNNGNTYLEWYLQKPGQSPKLLIYKVSNRFSGVPDRFSGSGSGTDFTLKISRVEAEDLGVYYCFQVSHVPFTFGSGTKLEIK | 409 | 2010 | 253 | 655 | 364 | 244 | 253 | 2380 | 1460 | 1330 |
| TM-30 (antibody, V domains shown, mouse IgG (hybridoma)) VH: QVQLQQSGPELVKPGASVKLSCKASDNTFTNYDVNWVRQRPGQGLEWIGWIYPRDGTTIYNEKFKGRATLTVDTSSSTAYMELHSLTSEDSAVFFCARTLPQAMDYWGQGTSVTVSS VL: DVLMTQSPLSLPVSLGDQVSISCRSSQTIVHRNGNTYLEWYLQKPGQSPKLLIYKVSNRFSGVPDRFSGSGSGTDFTLKISRVEAEDLGVYYCFQGSHLPWTFGGGTKLEIK | 4040 | 63500 | – | 3070 | 3030 | – | – | 61500 | – | 18400 |
| TM-32 (antibody, V domains shown) VH: EVQLQQSGAELVRPGASVRLSCIASGFNIKDYYMYWVKQRPEQGLEWIGRIDPEDGDTEYVPKFQGKATMTADTSSNTAYLQLSSLTSEDIGVYYCTTRTWDLYYAVDNWGQGTSVTVSS VL: DVLMTQTPLSLPVSLGDQASISCRSSQNIVHSNGNTYLEWYLQKPGQSPKLLIDKVSNRFSGVPDRFSGSGSGTDFTLKISRVEAEDLGIYYCFQGSHVPFTFGSGTKLEIK | 6100 | 63300 | – | 4100 | 3930 | – | – | 61100 | – | 20300 |
| TM-5 (antibody, V domains shown) VH: QVQLQQSGTELARPGASVKVSCKASGYIFTTYGITWVKQRGGQGLEWIGEIYPRSDNTYYNEKFKDKATLTADKSSSTAYMELRSLTSEDSAVYFCARSKGSGTGDYWGQGTTVTVSS VL: DIQMTQSPASLSASVGETVTITCRASENIYIYLAWYQQKQGKTPQLLVYNGKMLAENVPSRFSGSGSGTQFSLKINSLQPEDFGSYYCQHHYGSPPAFGAGTKLELK | 4800 | 64500 | 1740 | 2180 | 1970 | 866 | 1610 | 59300 | 1170 | 10800 |
| TM-7 (antibody, V domains shown) VH: EVQLQQSGPVLVKPGPPVKISCKASGFTFTDYYIHWVKLSHGKSLEWIGLVYPYNGDTDYNQKFKGKATLTVDTSSSTAYMELNSLTSEDSAVYYCARTYYANSPDYWGQGTTVTVSS VL: DIVMTQSPSSLSVSAGEKVTMSCKSSQSLLNSGNQRNYLAWYQQKPGQPPKLLIYGASTRESGVPDRFTGSGSGTDFTLTISNVQAEDLAVYYCQNDHSYPLTFGAGTKLELK | 1810 | 40000 | 1070 | 1670 | 883 | 442 | 1200 | 40800 | 647 | 9870 |
| TM-6 (antibody, V domains shown, mouse IgG (hybridoma)) VH: QVQLQQSGAELVKPGASVKLSCKASGYTFTEYTIHWVKQRSGQGLEWIGWFYPGSTYIDYNEKFKDKATLTADKSSSTVYLELSRLTSEDSAVYFCARHEEDYSNWFPFWGQGTLVTVSA VL: DIQMSQSSSYLSVSLGGRVTITCKASDHINNWLAWYQQKPGNAPRLLISGATSLETGVPSRFSGSGSGKDYTLSITSLQTEDVATYYCQQYWSSPYTFGGGTKLEIK | 544 | 393 | 520 | 294 | 418 | 304 | 371 | 581 | 1100 | 327 |
| TM-39 (antibody, V domains shown) VH: HVQRQQSGTELAKPGASVKLSCKTSGYTFTDYWMHWIKQRPGQGLEWIGFINPSSGYTKYNQNFKDKATLTADKSSSTAYMQLSSLTYEDSAVFYCAREAGSISDWYFDVWGTGTTVTVSS VL: DIVMTQAAPSIPVTPGESVSISCRSSKTLLNSNGNTYLYWFLQRPGQPPQLLIYRMSNLASGVPDRFSGSGSGTAFTLRISRVEAEDVGVYYCMQHLDYPYTFGGGTQLEIK | 5330 | 55600 | – | 3850 | 3610 | – | – | 51900 | – | 19200 |
| TM-10 (antibody, V domains shown) VH: QVQLQQSGAELVKPGASVKISCKGSGYAFSSYWMNWVKQRPGKGLEWIGQIYPGDGDTNYNGKFKGKATLTADKSSTTAYIHLSSLTSEDSAVYFCARWGHYDEAMDDWGQGTSVTVSS VL: DVVMTQTPLSLPVSLGDQASISCRSSQSLVHSNGKTYLHWYVQKPGQSPKLLIYKISNRFSGVPDRFSGSGSGTDFTLKISRVEAEDLGVYFCSQITHVPWTFGGGTKLESK | 1090 | 44400 | 596 | 3360 | 663 | 328 | 604 | 36500 | 823 | 21000 |
